Results on one substance are retold here after article PMC8534903.

The data set concerns His-Mwt (matrix protein M) (Human respiratory syncytial virus (A2?)). Kind of data set: EMSA. Particulars: 10 mM HEPES (pH not stated), 0.25 mM DTT, 50 mM KCl, 10 uL, 15 min at room temperature; 0.8% agarose gel, 40 V, 8 h, 4 C. In general terms: Mobility shift assays separate free from complexed probe on a gel.

control luciferase RNA (T7 transcript) displayed a K half of 2100 nM.
